Data published in publication doi:10.1101/2020.05.21.107789.
Like-named read-outs stand apart in the source and are kept apart here.

Key:
[1] = target: TEAD4 (recombinant protein of the TR-FRET and SPR assays) (human); test: AlphaScreen or HTRF
[2] = target: wt^Sd (Scalloped residues 223-440), N-biotinylated-Avitagged (Drosophila melanogaster) (UniProt P30052); test: SPR
[3] = target: N-terminally V5-tagged Asp272Ala^TEAD4 (full length) (human) (UniProt Q15561); test: co-IP
[4] = target: TEAD4 (recombinant protein of the TR-FRET and SPR assays) (human); test: SPR
[5] = target: TEAD4 (recombinant protein of the TR-FRET and SPR assays) (human); test: SPR; remark: listed apart in the source

Sequence of N-terminally V5-tagged Asp272Ala^TEAD4 (full length) (human) (Q15561 whole entry D272A): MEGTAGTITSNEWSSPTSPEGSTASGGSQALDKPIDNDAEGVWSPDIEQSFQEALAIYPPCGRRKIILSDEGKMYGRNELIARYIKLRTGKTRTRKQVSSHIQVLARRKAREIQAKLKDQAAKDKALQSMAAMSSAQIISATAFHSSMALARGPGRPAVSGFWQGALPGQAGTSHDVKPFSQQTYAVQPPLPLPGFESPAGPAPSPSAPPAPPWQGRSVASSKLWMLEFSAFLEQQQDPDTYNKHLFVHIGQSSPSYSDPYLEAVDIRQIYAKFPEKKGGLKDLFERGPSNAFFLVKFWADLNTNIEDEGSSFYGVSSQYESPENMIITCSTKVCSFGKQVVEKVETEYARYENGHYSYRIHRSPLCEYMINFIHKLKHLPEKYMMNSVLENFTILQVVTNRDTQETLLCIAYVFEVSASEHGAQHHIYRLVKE
Sequence of wt^Sd (Scalloped residues 223-440), N-biotinylated-Avitagged (Drosophila melanogaster) (P30052 223-440): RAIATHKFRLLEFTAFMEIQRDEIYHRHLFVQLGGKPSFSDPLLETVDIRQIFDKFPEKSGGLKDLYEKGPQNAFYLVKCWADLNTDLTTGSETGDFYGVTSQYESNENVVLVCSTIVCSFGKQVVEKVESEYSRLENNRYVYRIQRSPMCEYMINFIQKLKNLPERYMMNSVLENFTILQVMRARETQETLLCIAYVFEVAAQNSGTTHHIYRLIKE

| IC50 [1] [nM] | Kd [4] [nM] | Molecule | other results |
| --- | --- | --- | --- |
| 98000 |  | YAP^85-99 (Ω-loop of YAP) (from UniProt P46937 85-99) (peptide) |  |
| 157000 |  | Ac-PMSNRNFPPSFWNSN-NH2 [Vg^323-337 (Ω-loop of Vestigial)] |  |

More lines, now with the values behind:

| Molecule | IC50 [1] [nM] | Kd [4] [nM] | other results |
| --- | --- | --- | --- |
| VGLL3^140-154 (region of human VGLL3 aligned with the Ω-loop of Vg) (from UniProt A8MV65 140-154) (peptide) | > 500000 |  |  |
| Vg^298-337 (Vestigial Sd-binding domain without the putative β-strand) (from UniProt Q26366 298-337) (peptide) |  |  | Kd [2]: 61 nM |
| (FLAG)3-delΩ^VGLL2 (full-length VGLL2 with the Ω-loop deleted) (from UniProt Q8N8G2-1 1-317) (natural protein) |  |  | fold reduction of co-IP (IP over input) against wt^TEAD4 with wt^VGLL2 [3]: 2 fold |
| Ac-CVLFTYFQGDISSVVDEHFSRALS-NH2 [VGLL2^85-108 (β-strand:α-helix of human VGLL2)] |  | 590 |  |
| Ac-CVVFTNYSGDTASQVDEHFSRALNYNNKDSKESSSPMSNRNFPPSFWNSN-NH2 [Vg^288-337 (TONDU domain and Ω-loop of Vestigial)] |  | 4.1 | Kd [5]: 3.1 nM |
| Ac-PMSQRSFPASFWNSA-NH2 [VGLL2^135-149 (Ω-loop region of human VGLL2)] | 133000 |  |  |
| VGLL2^85-149 (β-strand:α-helix:Ω-loop of human VGLL2) (peptide) peptide: Ac-CVLFTYFQGDISSVVDEHFSRALSQPSSYSPSCTSSKAPRSSGPWRDCSFPMSQRSFPASFWNSA-NH2 |  | 34 |  |
